Laboratory results reported in patent US11845793B2, “Anti-ROR1 antibodies” (NBE-THERAPEUTICS AG, dated 2023).
Changes are numbered by the printed parent chain.

B1: huR12_11, humanized from R12 (antibody, V domains shown)
VH: QVQLVESGGALVQPGGSLTLSCKASGFDFSAYYMSWVRQAPGKGLEWIATIYPSSGKTYYAASVQGRFTISADNAKNTVYLQMNSLTAADTATYFCARDSYADDGALFNIWGQGTLVTVSS
VL: QLVLTQSPSVSAALGSSAKITCTLSSAHKTDTIDWYQQLAGQAPRYLMYVQSDGSYEKRSGVPDRFSGSSSGADRYLIISSVQADDEADYYCGADYIGGYVFGGGTQLTVG
B2: huR12_7, humanized from R12 (antibody, V domains shown)
VH: B1 VH with A10E, Y80S, Q113K
VL: QLVLTQSPSVSAALGSSAKITCTLSSAHKTDTIDWYQQLAGQAPRYLMYVQSDGSYEKRSGVPDRFSGSSSGADRYLIISSVQADDEADYYCGADYIGGYVFGGGTQLTVLG
B3: huR12_16, humanized from R12 (antibody, V domains shown)
VH: B1 VH with A10E, Q13T, T50S, S63A
VL: B1 VL
B4: Chimeric mAb R12 (antibody, V domains shown)
VH: QEQLVESGGRLVTPGGSLTLSCKASGFDFSAYYMSWVRQAPGKGLEWIATIYPSSGKTYYATWVNGRFTISSDNAQNTVDLQMNSLTAADRATYFCARDSYADDGALFNIWGPGTLVTISS
VL: B1 VL with Q1E, S17P, A40Q, Q42E, Y49Q, E57T, S60P, S80P, G111T
B5: huR12_4, humanized from R12 (antibody, V domains shown)
VH: B1 VH with A10E, Q113K
VL: B2 VL with S70A, I78A, S81R
B6: chimeric mAb R11 (antibody, V domains shown)
VH: QSVKESEGDLVTPAGNLTLTCTASGSDINDYPISWVRQAPGKGLEWIGFINSGGSTWYASWVKGRFTISRTSTTVDLKMTSLTTDDTATYFCARGYSTYYGDFNIWGPGTLVTISS
VL: ELVMTQTPSSTSGAVGGTVTINCQASQSIDSNLAWFQQKPGQPPTLLIYRASNLASGVPSRFSGSRSGTEYTLTISGVQREDAATYYCLGGVGNVSYRTSFGGGTEVVVK
B7: rbQ11, humanized from R11 (antibody, V domains shown)
VH: EVQLVQSGGGLVQPGGSLRLSCAASGSDINDYPISWVRQAPGKGLEWVSFINSGGSTWYASWVKGRFTISRDNAKNSLYLQMNSLRDDDTATYFCARGYSTYYGDFNIWGQGTLVTVSS
VL: DIVMTQSPSSLSASVGDRVTITCQASQSIDSNLAWFQQKPGKAPKSLIYRASNLASGVPSKFSGSGSGTDFTLTISSLQREDAATYYCLGGVGNVSYRTSFGGGTKVEIK
B8: rbD4, humanized from R11 (antibody, V domains shown)
VH: EVQLVESGGGLVQPGRSLRLSCTASGSDINDYPISWFRQAPGKGLEWVGFINSGGSTWYASWVKGRFTISRDDSKSIAYLQMNSLKTDDTATYFCARGYSTYYGDFNIWGQGTTVTVSS
VL: B7 VL with I2V, K45N, S46L, K61R, D70E, G103Q
B9: rbQ12, humanized from R11 (antibody, V domains shown)
VH: B7 VH with Q6E, D87A, L114M
VL: B7 VL with D1E, K45N, S46L, K61R, D70E, G103Q
B10: hu2A2-D23, humanized from 2A2 (antibody, V domains shown)
VH: QVQLVESGAEVKKPGASVKLSCKASGYTFSDYEMHWVRQAPGQRLEWMGAIDPETGGTAYNQKFKGRVTITVDKSASTAYMELSSLRSEDTAVYYCTGYYDYDSFTYWGPGTTVTVSS
VL: DIVMTQSPSTLSASVGDRVTITCKASQNVDAAVAWYQQKPGTAPKLLIYSASNRYTGVPSRFSGSGSGTEFTLTISSLQSEDLADYFCQQYDIYPYTFGQGTKLEIK
B11: hu2A2b-Q11, humanized from 2A2 (antibody, V domains shown)
VH: EVQLVQSGAEVKKPGASVKVSCKASGYTFSDYEMHWVRQAPGQGLEWLGAIDPETGGTAYNQKFKGRVTMTGDTSISTAYMELSRLTSDDTAVYYCTGYYDYDSFTYWGQGTLVSVSS
VL: B10 VL with V3Q, T10S, A13T, T42K, P59A, E70D, L73F
B12: hu2A2-D16, humanized from 2A2 (antibody, V domains shown)
VH: B11 VH with Q6E, L48V, G72R, I76T, A79V, R85S, T87R, D89E, S115T
VL: B10 VL with V3Q, T10S, T42K, V58I, S60T, E70D, L104V
B13: chimeric mAb 2A2 (antibody, V domains shown)
VH: QVQLQQSGAELVRPGASVTLSCKASGYTFSDYEMHWVIQTPVHGLEWIGAIDPETGGTAYNQKFKGKAILTADKSSSTAYMELRSLTSEDSAVYYCTGYYDYDSFTYWGQGTLVTVSA
VL: DIVMTQSQKIMSTTVGDRVSITCKASQNVDAAVAWYQQKPGQSPKLLIYSASNRYTGVPDRFTGSGSGTDFTLTISNMQSEDLADYFCQQYDIYPYTFGGGTKLEIK

Biological target: T1, StrepII-tagged ROR1-extracellular domain (human, UniProt Q01973)
Assay: SPR (Biacore T200), IgG from HEK293T supernatant captured by anti-human Fc, ROR1-strep as analyte, 1:1 model
Description: For initial determination of huR12 clone affinities and parental R12 using transient HEK293T supernatants, IgG expression vectors were transiently transfected into 293T cells and IgG titers in supernatants were quantified by ELISA. For SPR, supernatants were diluted to 1 µg/ml IgG with running buffer (HBS-EP+pH 7.4 (10 mM HEPES, 150 mM NaCl, 3 mM EDTA, 0.05% Tween® 20)) and captured for 200s with a flow of 30 µl/min. ROR1-strep was diluted in running buffer using 2-fold serial dilutions ranging from 20 nM to 2.5 nM. Association was measured at a flow of 30 µl/min for 120s, and dissociation was followed for 1000s. Capture levels ranged from 26.9 RU to 54.1 RU.

T1 sequence (Q01973 other isoform, or with tags, fused parts or gaps): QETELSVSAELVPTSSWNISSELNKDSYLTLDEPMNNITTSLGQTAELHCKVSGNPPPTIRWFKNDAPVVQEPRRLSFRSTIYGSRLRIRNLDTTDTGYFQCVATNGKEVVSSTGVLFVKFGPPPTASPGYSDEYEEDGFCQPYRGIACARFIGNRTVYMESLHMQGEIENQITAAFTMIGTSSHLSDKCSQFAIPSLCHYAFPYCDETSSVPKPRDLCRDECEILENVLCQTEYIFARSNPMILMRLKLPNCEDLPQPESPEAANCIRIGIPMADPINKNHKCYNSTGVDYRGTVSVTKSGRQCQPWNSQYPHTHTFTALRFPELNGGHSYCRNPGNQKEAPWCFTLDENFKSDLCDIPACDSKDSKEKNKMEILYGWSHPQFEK

Row | Kd [nM] | koff [s⁻¹] | kon [M⁻¹ s⁻¹] | Binder
1 | 0.084 | 9.65e-05 | 1.15e+06 | B1
2 | 0.11 | 0.000116 | 1.05e+06 | B2
3 | 0.092 | 8.79e-05 | 960000 | B3
4 | 1.03 | 0.000361 | 349000 | B4
5 | 0.091 | 9.93e-05 | 1.09e+06 | B5

Biological target: T1, StrepII-tagged ROR1-extracellular domain
Assay: SPR (Biacore T200), purified mAb captured by anti-human Fc, ROR1-strep as analyte, 1:1 model

Row | Kd [nM] | koff [s⁻¹] | kon [M⁻¹ s⁻¹] | Binder
6 | 3.4 | 0.00328 | 957000 | B6
7 | 6.1 | 0.00498 | 821000 | B7
8 | 9 | 0.0071 | 785000 | B8
9 | 14.2 | 0.0104 | 733000 | B9
10 | 8 | 0.0138 | 1.72e+06 | B10
11 | 9.9 | 0.0173 | 1.75e+06 | B11
12 | 10.9 | 0.0189 | 1.73e+06 | B12
13 | 5.7 | 0.00968 | 1.69e+06 | B13
